Results as given in patent US20110055942A1.

Target: T1, BMPR-1A receptor extra cellular domain (ECD), P36894
T1 chain: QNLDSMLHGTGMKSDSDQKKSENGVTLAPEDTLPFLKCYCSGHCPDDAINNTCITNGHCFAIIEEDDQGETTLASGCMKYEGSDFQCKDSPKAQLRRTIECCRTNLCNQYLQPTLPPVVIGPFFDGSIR
Assay: radio-ligand competition: cold TDF-1 displacing 125I-labeled TDF-1 from immobilized BMPR-1A ECD
Details: remark: other sources report otherwise

ED50: 6.5 nM
B1: TDF-1 (BMP-7 or OP-1), P18075 293-431 (ligand, UniProt P18075 293-431, looked up)
chain: STGSKQRSQNRSKTPKNQEALRMANVAENSSSDQRQACKKHELYVSFRDLGWQDWIIAPEGYAAYYCEGECAFPLNSYMNATNHAIVQTLVHFINPETVPKPCCAPTQLNAISVLYFDDSSNVILKKYRNMVVRACGCH
